The chains are these.
B1: 108 (dsDNA)
DNA 1: AAAAAAGGCGTCTGACTGTAACTCGTAAAA
DNA 2: TTTTACGAGTTACAGTCAGACGCCTTTTTT
B2: 276 (dsDNA)
DNA 1: AAAAAACATCGCTGTCGTTGACGTTGAAAA
DNA 2: TTTTCAACGTCAACGACAGCGATGTTTTTT
B3: 44 (dsDNA)
DNA 1: AAAAAAGTACATGCGTAGATAATGTTAAAA
DNA 2: TTTTAACATTATCTACGCATGTACTTTTTT
B4: 109 (dsDNA)
DNA 1: AAAAAATACGTCTACGTGGTTGTCGTAAAA
DNA 2: TTTTACGACAACCACGTAGACGTATTTTTT
B5: 313 (dsDNA)
DNA 1: AAAAAATCGCGAACGTACGTCCGCGGAAAA
DNA 2: TTTTCCGCGGACGTACGTTCGCGATTTTTT
B6: 287 (dsDNA)
DNA 1: AAAAAACACGCCATTGACACTGGTAAAAAA
DNA 2: TTTTTTACCAGTGTCAATGGCGTGTTTTTT
B7: 239 (dsDNA)
DNA 1: AAAAAAGTCGTTACACGTATGCGTGCAAAA
DNA 2: TTTTGCACGCATACGTGTAACGACTTTTTT
B8: 233 (dsDNA)
DNA 1: AAAAAAGGTCCAGTCCACGTCATCAGAAAA
DNA 2: TTTTCTGATGACGTGGACTGGACCTTTTTT
B9: 223 (dsDNA)
DNA 1: AAAAAAGGCCACGGTAACCCCTTTTGAAAA
DNA 2: TTTTCAAAAGGGGTTACCGTGGCCTTTTTT
B10: 124 (dsDNA)
DNA 1: AAAAAAACTCACGGCGTCACTATGGTAAAA
DNA 2: TTTTACCATAGTGACGCCGTGAGTTTTTTT
B11: 270 (dsDNA)
DNA 1: AAAAAACATGTCGCACCTGTACTAACAAAA
DNA 2: TTTTGTTAGTACAGGTGCGACATGTTTTTT
B12: 110 (dsDNA)
DNA 1: AAAAAAGCGTAAGCCTTGACAGTCGTAAAA
DNA 2: TTTTACGACTGTCAAGGCTTACGCTTTTTT
B13: 153 (dsDNA)
DNA 1: AAAAAATGTATTCGTGTCCACTCCATAAAA
DNA 2: TTTTATGGAGTGGACACGAATACATTTTTT
B14: 202 (dsDNA)
DNA 1: AAAAAAGATTGACTCGTCTTACTCGAAAAA
DNA 2: TTTTTCGAGTAAGACGAGTCAATCTTTTTT
B15: 246 (dsDNA)
DNA 1: AAAAAACTGACCGTCAGCGCCCACGCAAAA
DNA 2: TTTTGCGTGGGCGCTGACGGTCAGTTTTTT
B16: 31 (dsDNA)
DNA 1: AAAAAATCCACGACTCAGCAGCTCTTAAAA
DNA 2: TTTTAAGAGCTGCTGAGTCGTGGATTTTTT
B17: 294 (dsDNA)
DNA 1: AAAAAACGTGCGCGTGCATGTCATCGAAAA
DNA 2: TTTTCGATGACATGCACGCGCACGTTTTTT
B18: 64 (dsDNA)
DNA 1: AAAAAATCGGGCCCCGTTAGCACTCTAAAA
DNA 2: TTTTAGAGTGCTAACGGGGCCCGATTTTTT
B19: 259 (dsDNA)
DNA 1: AAAAAAGTAGGTGCTGATGCTGGCCGAAAA
DNA 2: TTTTCGGCCAGCATCAGCACCTACTTTTTT
B20: 195 (dsDNA)
DNA 1: AAAAAATGGTCGTCGTACTCGTGGTCAAAA
DNA 2: TTTTGACCACGAGTACGACGACCATTTTTT
B21: 137 (dsDNA)
DNA 1: AAAAAAACTCTAGGTCAATATTATTCAAAA
DNA 2: TTTTGAATAATATTGACCTAGAGTTTTTTT
B22: 117 (dsDNA)
DNA 1: AAAAAAATCAGCCTGACTCTGGGCGTAAAA
DNA 2: TTTTACGCCCAGAGTCAGGCTGATTTTTTT
B23: 91 (dsDNA)
DNA 1: AAAAAAAGTGGCCGCTAGTCAACTCAAAAA
DNA 2: TTTTTGAGTTGACTAGCGGCCACTTTTTTT
B24: 36 (dsDNA)
DNA 1: AAAAAATTTGGTCTTCGTCCTCGCTTAAAA
DNA 2: TTTTAAGCGAGGACGAAGACCAAATTTTTT
B25: 97 (dsDNA)
DNA 1: AAAAAAAGTTTGACCTTGGCGTTCGTAAAA
DNA 2: TTTTACGAACGCCAAGGTCAAACTTTTTTT
B26: 88 (dsDNA)
DNA 1: AAAAAATCAACCATTATGGTATTACTAAAA
DNA 2: TTTTAGTAATACCATAATGGTTGATTTTTT
B27: 83 (dsDNA)
DNA 1: AAAAAATATGTAGCTGCCGTTACGCTAAAA
DNA 2: TTTTAGCGTAACGGCAGCTACATATTTTTT
B28: 260 (dsDNA)
DNA 1: AAAAAAGTATAACGTGTTGTTGACCGAAAA
DNA 2: TTTTCGGTCAACAACACGTTATACTTTTTT
B29: 222 (dsDNA)
DNA 1: AAAAAAGGCGGTCGTAGTTGTGGGAGAAAA
DNA 2: TTTTCTCCCACAACTACGACCGCCTTTTTT
B30: 43 (dsDNA)
DNA 1: AAAAAAAGGTCATTGCTGCTGGTGTTAAAA
DNA 2: TTTTAACACCAGCAGCAATGACCTTTTTTT
B31: 57 (dsDNA)
DNA 1: AAAAAAAATTAGTCTCTTCGTCTCCCAAAA
DNA 2: TTTTGGGAGACGAAGAGACTAATTTTTTTT
B32: 173 (dsDNA)
DNA 1: AAAAAATACATTTGACTTTGGGTTTCAAAA
DNA 2: TTTTGAAACCCAAAGTCAAATGTATTTTTT
B33: 54 (dsDNA)
DNA 1: AAAAAAGTCCGCCCTTAATTCATATTAAAA
DNA 2: TTTTAATATGAATTAAGGGCGGACTTTTTT
B34: 101 (dsDNA)
DNA 1: AAAAAAGTCTAAGGACTTATAGCTGTAAAA
DNA 2: TTTTACAGCTATAAGTCCTTAGACTTTTTT
B35: 271 (dsDNA)
DNA 1: AAAAAACGTTGAACCTGGGCCTCAACAAAA
DNA 2: TTTTGTTGAGGCCCAGGTTCAACGTTTTTT
B36: 92 (dsDNA)
DNA 1: AAAAAAAGTCTGCGGCTGCAGGGCGGAAAA
DNA 2: TTTTCCGCCCTGCAGCCGCAGACTTTTTTT
B37: 282 (dsDNA)
DNA 1: AAAAAACAGGCCGATTCCGATCCCGGAAAA
DNA 2: TTTTCCGGGATCGGAATCGGCCTGTTTTTT

The target of one data set is T1, AtbZIP63 (Arabidopsis thaliana, UniProt B9DGI8 1-314).
T1 sequence: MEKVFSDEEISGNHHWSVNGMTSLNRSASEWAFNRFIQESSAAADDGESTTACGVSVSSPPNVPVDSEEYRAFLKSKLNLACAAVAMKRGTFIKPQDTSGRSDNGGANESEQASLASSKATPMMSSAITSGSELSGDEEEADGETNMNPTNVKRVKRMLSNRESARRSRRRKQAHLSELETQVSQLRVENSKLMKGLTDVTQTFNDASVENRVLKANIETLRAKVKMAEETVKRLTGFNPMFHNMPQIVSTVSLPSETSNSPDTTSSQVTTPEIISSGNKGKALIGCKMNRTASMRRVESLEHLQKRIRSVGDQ
Put plainly: DPI-ELISA; DPI-ELISA, streptavidin 384-well plate, 1-2 pmol biotinylated dsDNA per well, crude native E. coli extract, anti-His detection; buffer as in Brand et al. [46],; high values mean tight binding. The note with it: tags: C-terminal His (pET-DEST42); chain copies: 2; label: 5' biotin on forward strand. For orientation: An ELISA detects its analyte on a solid surface through an enzyme-linked reagent.
In the case of B1, the binding signal was 2.54 relative normalized absorbance.
For B2, the binding signal was 2.02 relative normalized absorbance.
Same read-out and setting: the figure for B3 is 2.11 relative normalized absorbance; for B4 it is 2.98 relative normalized absorbance.
Regarding B5, the binding signal was 2.62 relative normalized absorbance.
For the molecule B6, the binding signal was 1.99 relative normalized absorbance.
The same measure, in the same setting: as for B7, the figure is 2.62 relative normalized absorbance; as for B8, 2.57 relative normalized absorbance.
In the case of B9, the binding signal was 2.06 relative normalized absorbance.
In the case of B10, the binding signal was 2.46 relative normalized absorbance.
Same read-out and setting: as for B11, the figure is 1.93 relative normalized absorbance; as for B12, 1.94 relative normalized absorbance.
On the same count and under the same terms, the figure for B13 is 1.89 relative normalized absorbance; for B14 it is 2.68 relative normalized absorbance; for B15 it is 1.96 relative normalized absorbance.
The same measure, in the same setting: as for B16, the figure is 2.32 relative normalized absorbance.
On to B17, for which the binding signal is 1.97 relative normalized absorbance.
B18: the binding signal is 2.04 relative normalized absorbance.
On the same count and under the same terms, as for B19, the figure is 1.92 relative normalized absorbance.

The target in another data set is WRKY33 cDBD (Arabidopsis thaliana, UniProt Q8S8P5 345-449). Described as above. The note with it: tags: C-terminal His (pET-DEST42); label: 5' biotin on forward strand.
Sequence of WRKY33 cDBD (Q8S8P5 other isoform, or with tags, fused parts or gaps): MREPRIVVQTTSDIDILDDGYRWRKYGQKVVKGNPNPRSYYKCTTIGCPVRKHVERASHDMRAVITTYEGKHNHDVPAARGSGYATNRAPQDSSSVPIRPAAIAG
As to B20, the binding signal was 2.34 relative normalized absorbance.
The same measure, in the same setting: as for B1, the figure is 2.35 relative normalized absorbance.
Consider B2, for which the binding signal is 2.34 relative normalized absorbance.
Same read-out and setting: as for B21, the figure is 2.3 relative normalized absorbance; as for B22, 2.01 relative normalized absorbance; as for B7, 2.32 relative normalized absorbance.
On the same count and under the same terms, the figure for B23 is 2.25 relative normalized absorbance; for B24 it is 2.17 relative normalized absorbance.
As for B8, the binding signal was 2.34 relative normalized absorbance.
Still for that read-out and setting: as for B25, the figure is 2.28 relative normalized absorbance; as for B26, 2.02 relative normalized absorbance; as for B27, 2.34 relative normalized absorbance.
On the same count and under the same terms, the figure for B14 is 2.3 relative normalized absorbance; for B28 it is 2.33 relative normalized absorbance.
The same measure, in the same setting: the figure for B29 is 2.35 relative normalized absorbance.
Consider B30, for which the binding signal was 2.19 relative normalized absorbance.
Still for that read-out and setting: as for B31, the figure is 2.01 relative normalized absorbance; as for B15, 2.09 relative normalized absorbance.
Same read-out and setting: the figure for B32 is 2.31 relative normalized absorbance.
The same measure, in the same setting: as for B33, the figure is 2.35 relative normalized absorbance.
With B34, the binding signal is 2.37 relative normalized absorbance.
Still for that read-out and setting: the figure for B35 is 2.33 relative normalized absorbance; for B36 it is 2.36 relative normalized absorbance.

For a further data set, the target named is T2, AtTIFY1 (Arabidopsis thaliana, UniProt Q9LRH6 1-309).
T2 sequence: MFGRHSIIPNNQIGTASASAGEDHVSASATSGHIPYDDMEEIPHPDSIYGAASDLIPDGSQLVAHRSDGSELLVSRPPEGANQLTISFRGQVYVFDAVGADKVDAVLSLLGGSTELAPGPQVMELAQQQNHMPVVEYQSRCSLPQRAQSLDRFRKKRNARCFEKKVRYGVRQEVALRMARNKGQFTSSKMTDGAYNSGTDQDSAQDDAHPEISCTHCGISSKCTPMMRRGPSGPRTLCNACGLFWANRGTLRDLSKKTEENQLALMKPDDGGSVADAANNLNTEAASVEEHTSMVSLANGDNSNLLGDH
The description is as above. The note with it: tags: C-terminal His (pET-DEST42); label: 5' biotin on forward strand.
As for B37, the binding signal was 1.83 relative normalized absorbance.

Source of the values: PMC3795721, “Screening for Protein-DNA Interactions by Automatable DNA-Protein Interaction ELISA”.
